Results taken from article PMC3427169, “Interaction of Mycobacterium tuberculosis RshA and SigH Is Mediated by Salt Bridges” (PLoS ONE, 2012).

How the values were obtained:
[1] = target: SigH (Mycobacterium tuberculosis) (UniProt P9WGH8); details: cited from earlier work
[2] = target: T1, Mycobacterium tuberculosis SigH, 6xHis-tagged (pET29a) (Mycobacterium tuberculosis H37Rv, UniProt P9WGH9 1-216); assay: native gel or EMSA; metal free RshA mixed with SigH at equimolar concentrations (3 µM each in the text, 5 µM each in the legend), 50 mM Tris HCl pH 8.0, 100 mM NaCl, 0.01% Triton X-100, 25°C; native gel pH 8.8 and SDS-PAGE, Coomassie; details: both partners purified
T1 construct: no tag removal is told; also called WT SigH; 6xHis:SigH; not shown: His6, C-terminal, kept
T1 sequence (P9WGH9 whole entry): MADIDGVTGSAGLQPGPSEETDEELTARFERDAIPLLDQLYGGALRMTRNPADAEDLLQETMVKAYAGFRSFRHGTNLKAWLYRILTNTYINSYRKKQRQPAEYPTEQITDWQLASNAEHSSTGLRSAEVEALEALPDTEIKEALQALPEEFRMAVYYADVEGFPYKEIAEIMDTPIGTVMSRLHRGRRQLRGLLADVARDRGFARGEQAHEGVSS

Sequence of SigH (Mycobacterium tuberculosis) (P9WGH8 whole entry): as the sequence (P9WGH9 whole entry) above

Molecule | Kd [1] [nM] | binding result [2]
RshA (from UniProt P9WJ68) | 15 | –
Mycobacterium tuberculosis anti-sigma factor RshA, 6xHis-tagged (pET29a) (natural protein, also called WT RshA; 6xHis:RshA; not shown: His6, C-terminal, kept) MSENCGPTDAHADHDDSHGGMGCAEVIAEVWTLLDGECTPETRERLRRHLEACPGCLRHYGLEERIKALIGTKCRGDRAPEGLRERLRLEIRRTTIIRGGP | – | binds
